Data set [1] addresses ZFP3_Egr1_site3_antisense (VP64). Kind of data set: cell_activity; Klotho protein ELISA in HK-2; also active in HEK293 4 kb promoter reporter. As to conditions: tags: NLS, VP64, HA. On the procedure: (§1) ELISA components were purchased from IBL and assays were performed according to the manufacturers instructions.
(§2) Klotho is largely expressed in the brain and kidney, and so further investigations were made using cell lines derived from those organs. The ZFPs were transfected into HK-2 cells and Klotho protein levels were measured.

Data set [2] addresses ZFP3_Egr1_site3_antisense_VPR. Nature of the data set: cell_activity; Klotho ELISA in HK-2. As to conditions: tags: NLS, VP64-p65-Rta, HA, V5, His. How it is done:
as §1, §2

A further data set concerns the target ZFP52_VPR. Nature of the data set: cell_activity; Klotho ELISA in HK-2. As to conditions: tags: NLS, VP64-p65-Rta, HA, V5, His. How it is done: as §1, §2
Another data set concerns the target ZFP52 (VP64). Nature of the data set: cell_activity; Klotho ELISA in HK-2. To be noted: tags: NLS, VP64, HA. On the procedure: as §1, §2

ZFP52_VPR, sequence (chain, as listed by the source): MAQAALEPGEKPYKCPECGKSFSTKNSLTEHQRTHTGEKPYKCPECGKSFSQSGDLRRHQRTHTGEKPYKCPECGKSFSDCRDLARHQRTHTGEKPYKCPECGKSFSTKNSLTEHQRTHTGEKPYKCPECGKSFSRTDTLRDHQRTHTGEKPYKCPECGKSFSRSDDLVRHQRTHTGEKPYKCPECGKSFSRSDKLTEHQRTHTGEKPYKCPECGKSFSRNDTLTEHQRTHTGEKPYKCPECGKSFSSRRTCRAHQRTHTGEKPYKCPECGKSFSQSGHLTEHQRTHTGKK
ZFP3_Egr1_site3_antisense_VPR, sequence (chain, as listed by the source): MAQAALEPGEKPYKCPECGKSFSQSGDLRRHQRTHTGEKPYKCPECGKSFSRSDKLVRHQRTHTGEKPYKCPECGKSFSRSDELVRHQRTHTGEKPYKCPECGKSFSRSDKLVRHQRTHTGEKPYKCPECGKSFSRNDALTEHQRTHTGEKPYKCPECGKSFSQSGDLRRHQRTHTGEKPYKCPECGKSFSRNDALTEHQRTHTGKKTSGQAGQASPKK

B1: ZFP3_Egr1_site3 target (dsDNA)
DNA 1: CTGGCACTGGGGGTGGGGGCA
DNA 2: TGCCCCCACCCCCAGTGCCAG
For B1, the activity in data set [1] and in data set [2] was approximately 3 fold in each case.

B2: ZFP52 target (dsDNA)
DNA 1: CGACGTCCGCGGGCGACGCCTGCCGCACCT
DNA 2: AGGTGCGGCAGGCGTCGCCCGCGGACGTCG
On to B2, for which the activity with ZFP52_VPR is approximately 5 fold; with ZFP52 (VP64), approximately 2 fold.

Values taken from patent publication US20210380648, “DNA BINDING PROTEINS AND USES THEREOF” (Klogenix LLC, published 2021).
